The results in this text go back to patent publication US20240000838A1 (SIMCERE INNOVATION, published 2024).

In assay [1] the target is T1, CD5 on human T cells (autologous and allogeneic Pan-T cells) and on the T-ALL cell line CCRF-CEM (human, UniProt P06127 25-495).
T1 sequence (looked up): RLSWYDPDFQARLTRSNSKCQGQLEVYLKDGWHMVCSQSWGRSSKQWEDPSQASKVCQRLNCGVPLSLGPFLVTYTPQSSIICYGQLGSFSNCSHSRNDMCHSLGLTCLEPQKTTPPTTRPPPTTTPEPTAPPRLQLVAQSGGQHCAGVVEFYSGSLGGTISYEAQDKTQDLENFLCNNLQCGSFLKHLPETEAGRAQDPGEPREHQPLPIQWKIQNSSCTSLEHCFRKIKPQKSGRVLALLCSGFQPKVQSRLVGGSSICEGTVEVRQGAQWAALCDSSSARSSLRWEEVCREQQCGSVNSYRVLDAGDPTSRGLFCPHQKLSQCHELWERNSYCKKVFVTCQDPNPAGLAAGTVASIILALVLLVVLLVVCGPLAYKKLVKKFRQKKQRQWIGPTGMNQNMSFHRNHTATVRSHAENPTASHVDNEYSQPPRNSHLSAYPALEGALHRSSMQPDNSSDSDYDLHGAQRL
Put plainly: cell-based or functional assay.

Assay [2] has as its target T2, CD33 human protein-PE (Sino Biological, 12238-HCCH_P) (human, UniProt P20138 18-259, PE label).
T2 construct: Bought staining reagent; also called CD33 antigen
Put plainly: flow cytometry; CAR-T cells stained with CD33 human protein-PE. Here is the method: CD3 and CD5 are stained with a CD3-FITC antibody (BD Biosciences, #555339) and a CD5-APC antibody (BD Biosciences, #555355) for 30 minutes at R.T. in the dark. CAR5 surface expression is detected by staining with Human CD5 Protein, HisTag (AcroBiosystems, Cat #CD5-H52H5) for 1 hour at R.T., washed and then incubated with His-APC antibody (R&D Systems, IC050A) for 30 minutes at R.T. in the dark. CAR33 expression is stained with CD33 human protein-PE (Sino Biological, 12238-HCCH_P) for 1 hour at R.T. All the staining is performed at 1:10 dilutions. DAPI (Thermo Scientific, Cat #BV-421, 1:5000) is used to stain dead cells before running by the Attune NxT Flow Cytometer (Thermo Fisher Scientific). Data is further analyzed by either using Attune NxT flow software or FlowJo software.
For orientation: Flow cytometry measures light scatter and fluorescence of single cells or particles in a stream.

Numbering of substitutions follows the chain as printed.

T2 sequence (P20138 18-259 limits assumed): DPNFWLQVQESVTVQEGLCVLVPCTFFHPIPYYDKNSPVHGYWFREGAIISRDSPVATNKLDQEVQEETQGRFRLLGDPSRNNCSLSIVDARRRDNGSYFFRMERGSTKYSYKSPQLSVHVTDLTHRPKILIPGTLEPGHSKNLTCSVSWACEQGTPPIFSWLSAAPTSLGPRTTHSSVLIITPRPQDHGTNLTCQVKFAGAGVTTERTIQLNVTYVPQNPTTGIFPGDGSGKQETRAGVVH

B1: CD5/CD33 Dual-CAR, construct S043 (other)
chain: QVQLVQSGAEVKKPGSSVKVSCKASGYTFTDYNMHWVRQAPGQGLEWIGYIYPYNGGTGYNQKFKSKATITADESTNTAYMELSSLRSEDTAVYYCARGRPAMDYWGQGTLVTVSSGGGGSDIQMTQSPSSLSASVGDRVTITCRASQDINSYLSWFQQKPGKAPKTLIYRANRLESGVPSRFSGSGSGTDYTLTISSLQYEDFGIYYCQQYDESPWTFGGGTKLEIKGSTSGSGKPGSGEGSTKGEIQLVQSGGGLVKPGGSVRISCAASGYTFTNYGMNWVRQAPGKGLEWMGWINTHTGEPTYADSFKGRFTFSLDDSKNTAYLQINSLRAEDTAVYFCTRRGYDWYFDVWGQGTTVTVSSGGGGSDIQMTQSPSSLSASVGDRVTITCRASESVDNYGISFMNWFQQKPGKAPKLLIYAASNQGSGVPSRFSGSGSGTDFTLTISSLQPDDFATYYCQQSKEVPWTFGQGTKVEIKASTTTPAPRPPTPAPTIASQPLSLRPEACRPAAGGAVHTRGLDFACDIYIWAPLAGTCGVLLLSLVITLYCKRGRKKLLYIFKQPFMRPVQTTQEEDGCSCRFPEEEEGGCELRVKFSRSADAPAYKQGQNQLYNELNLGRREEYDVLDKRRGRDPEMGGKPRRKNPQEGLYNELQKDKMAEAYSEIGMKGERRRGKGHDGLYQGLSTATKDTYDALHMQALPPR
Consider B1, for which the “elimination of CCRF-CEM cells after 18 hours (luciferase-based killing assay)” value (“elimination of CCRF-CEM cells” for short) in assay [1] was approximately 100%.

B2: CD5/CD33 Dual-CAR, construct S048 (other)
chain: DIQMTQSPSSLSASVGDRVTITCRASESVDNYGISFMNWFQQKPGKAPKLLIYAASNQGSGVPSRFSGSGSGTDFTLTISSLQPDDFATYYCQQSKEVPWTFGQGTKVEIKGGGGSGGGGSGGGGSQVQLVQSGAEVKKPGSSVKVSCKASGYTFTDYNMHWVRQAPGQGLEWIGYIYPYNGGTGYNQKFKSKATITADESTNTAYMELSSLRSEDTAVYYCARGRPAMDYWGQGTLVTVSSASTTTPAPRPPTPAPTIASQPLSLRPEACRPAAGGAVHTRGLDFACDIYIWAPLAGTCGVLLLSLVITLYCKRGRKKLLYIFKQPFMRPVQTTQEEDGCSCRFPEEEEGGCELRVKFSRSADAPAYKQGQNQLYNELNLGRREEYDVLDKRRGRDPEMGGKPRRKNPQEGLYNELQKDKMAEAYSEIGMKGERRRGKGHDGLYQGLSTATKDTYDALHMQALPPRGSGATNFSLLKQAGDVEENPGPMALPVTALLLPLALLLHAARPDIKMTQSPSSMYASLGERVTITCKASQDINSYLSWFHHKPGKSPKTLIYRANRLVDGVPSRFSGSGSGQDYSLTISSLDYEDMGIYYCQQYDESPWTFGGGTKLEMKGGGGSGGGGSGGGGSNIQLVQSGPELKKPGETVKISCKASGYTFTNYGMNWVKQAPGKGLRWMGWINTHTGEPTYADDFKGRFAFSLETSASTAYLQINNLKNEDTATYFCTRRGYDWYFDVWGAGTTVTVSSSGTTTPAPRPPTPAPTIASQPLSLRPEACRPAAGGAVHTRGLDFACDIYIWAPLAGTCGVLLLSLVITLYCKRGRKKLLYIFKQPFMRPVQTTQEEDGCSCRFPEEEEGGCELRVKFSRSADAPAYKQGQNQLYNELNLGRREEYDVLDKRRGRDPEMGGKPRRKNPQEGLYNELQKDKMAEAYSEIGMKGERRRGKGHDGLYQGLSTATKDTYDALHMQALPPRFE
Consider B2, for which the “elimination of CCRF-CEM cells” value in assay [1] was approximately 100%.

B3: CD33 CAR CAR33-2, construct S012 (other)
chain: QVQLVQSGAEVKKPGSSVKVSCKASGYTFTDYNMHWVRQAPGQGLEWIGYIYPYNGGTGYNQKFKSKATITADESTNTAYMELSSLRSEDTAVYYCARGRPAMDYWGQGTLVTVSSGGGGSGGGGSGGGGSDIQMTQSPSSLSASVGDRVTITCRASESVDNYGISFMNWFQQKPGKAPKLLIYAASNQGSGVPSRFSGSGSGTDFTLTISSLQPDDFATYYCQQSKEVPWTFGQGTKVEIKASTTTPAPRPPTPAPTIASQPLSLRPEACRPAAGGAVHTRGLDFACDIYIWAPLAGTCGVLLLSLVITLYCKRGRKKLLYIFKQPFMRPVQTTQEEDGCSCRFPEEEEGGCELRVKFSRSADAPAYKQGQNQLYNELNLGRREEYDVLDKRRGRDPEMGGKPRRKNPQEGLYNELQKDKMAEAYSEIGMKGERRRGKGHDGLYQGLSTATKDTYDALHMQALPPR
notes: Chimeric antigen receptor on T cells
As for B3, the binding result in assay [2] is given as “binds”.

B4: CD33 CAR CAR33-1, construct S011 (other)
chain: DIQMTQSPSSLSASVGDRVTITCRASESVDNYGISFMNWFQQKPGKAPKLLIYAASNQGSGVPSRFSGSGSGTDFTLTISSLQPDDFATYYCQQSKEVPWTFGQGTKVEIKGGGGSGGGGSGGGGSQVQLVQSGAEVKKPGSSVKVSCKASGYTFTDYNMHWVRQAPGQGLEWIGYIYPYNGGTGYNQKFKSKATITADESTNTAYMELSSLRSEDTAVYYCARGRPAMDYWGQGTLVTVSSASTTTPAPRPPTPAPTIASQPLSLRPEACRPAAGGAVHTRGLDFACDIYIWAPLAGTCGVLLLSLVITLYCKRGRKKLLYIFKQPFMRPVQTTQEEDGCSCRFPEEEEGGCELRVKFSRSADAPAYKQGQNQLYNELNLGRREEYDVLDKRRGRDPEMGGKPRRKNPQEGLYNELQKDKMAEAYSEIGMKGERRRGKGHDGLYQGLSTATKDTYDALHMQALPPR
notes: as for B3
As to B4, the binding result in assay [2] is recorded as “binds”.

B5: CD33 CAR CAR33-4, construct S014 (other)
chain: QVQLQQPGAEVVKPGASVKMSCKASGYTFTSYYIHWIKQTPGQGLEWVGVIYPGNDDISYNQKFQGKATLTADKSSTTAYMQLSSLTSEDSAVYYCAREVRLRYFDVWGQGTTVTVSSGGGGSGGGGSGGGGSEIVLTQSPGSLAVSPGERVTMSCKSSQSVFFSSSQKNYLAWYQQIPGQSPRLLIYWASTRESGVPDRFTGSGSGTDFTLTISSVQPEDLAIYYCHQYLSSRTFGQGTKLEIKRASTTTPAPRPPTPAPTIASQPLSLRPEACRPAAGGAVHTRGLDFACDIYIWAPLAGTCGVLLLSLVITLYCKRGRKKLLYIFKQPFMRPVQTTQEEDGCSCRFPEEEEGGCELRVKFSRSADAPAYKQGQNQLYNELNLGRREEYDVLDKRRGRDPEMGGKPRRKNPQEGLYNELQKDKMAEAYSEIGMKGERRRGKGHDGLYQGLSTATKDTYDALHMQALPPR
notes: as for B3
As for B5, the binding result in assay [2] was “binds”.

B6: CD33 CAR CAR33-6, construct S016 (other)
chain: B5 chain with Q65K, Q110A, E134N, V136M, G142S, P148A, R151K, R184K, P219S, Q238G
notes: as for B3
B6: the binding result in assay [2] is recorded as “binds”.

B7: CD5/CD33 Dual-CAR, construct S049 (other)
chain: DIQMTQSPSSLSASVGDRVTITCRASESVDNYGISFMNWFQQKPGKAPKLLIYAASNQGSGVPSRFSGSGSGTDFTLTISSLQPDDFATYYCQQSKEVPWTFGQGTKVEIKGGGGSGGGGSGGGGSQVQLVQSGAEVKKPGSSVKVSCKASGYTFTDYNMHWVRQAPGQGLEWIGYIYPYNGGTGYNQKFKSKATITADESTNTAYMELSSLRSEDTAVYYCARGRPAMDYWGQGTLVTVSSASTTTPAPRPPTPAPTIASQPLSLRPEACRPAAGGAVHTRGLDFACDIYIWAPLAGTCGVLLLSLVITLYCKRGRKKLLYIFKQPFMRPVQTTQEEDGCSCRFPEEEEGGCELRVKFSRSADAPAYKQGQNQLYNELNLGRREEYDVLDKRRGRDPEMGGKPRRKNPQEGLYNELQKDKMAEAYSEIGMKGERRRGKGHDGLYQGLSTATKDTYDALHMQALPPRGSGATNFSLLKQAGDVEENPGPMALPVTALLLPLALLLHAARPDIQMTQSPSSLSASVGDRVTITCRASQDINSYLSWFQQKPGKAPKTLIYRANRLESGVPSRFSGSGSGTDYTLTISSLQYEDFGIYYCQQYDESPWTFGGGTKLEIKGGGGSGGGGSGGGGSEIQLVQSGGGLVKPGGSVRISCAASGYTFTNYGMNWVRQAPGKGLEWMGWINTHTGEPTYADSFKGRFTFSLDDSKNTAYLQINSLRAEDTAVYFCTRRGYDWYFDVWGQGTTVTVSSSGTTTPAPRPPTPAPTIASQPLSLRPEACRPAAGGAVHTRGLDFACDIYIWAPLAGTCGVLLLSLVITLYCKRGRKKLLYIFKQPFMRPVQTTQEEDGCSCRFPEEEEGGCELRVKFSRSADAPAYKQGQNQLYNELNLGRREEYDVLDKRRGRDPEMGGKPRRKNPQEGLYNELQKDKMAEAYSEIGMKGERRRGKGHDGLYQGLSTATKDTYDALHMQALPPRFE
On to B7, for which the “elimination of CCRF-CEM cells” value in assay [1] was approximately 100%.
